Reference: patent US20230203146A1 (Boehringer Ingelheim, published 2023)
Substitutions are numbered along the chain they refer to. In names and notes the source's numbering stands. Read-outs that look alike come from different tables or passages of the source.

Legend:
[1] = molecular target: T1, recombinant mouse Ang2-FLD (mouse, UniProt O35608 275-496, limits assumed); assay: SPR (Biacore T100), binder on CM5 chip, Ang2-FLD as analyte
T1 construct: domain: FLD
T1 sequence (looked up): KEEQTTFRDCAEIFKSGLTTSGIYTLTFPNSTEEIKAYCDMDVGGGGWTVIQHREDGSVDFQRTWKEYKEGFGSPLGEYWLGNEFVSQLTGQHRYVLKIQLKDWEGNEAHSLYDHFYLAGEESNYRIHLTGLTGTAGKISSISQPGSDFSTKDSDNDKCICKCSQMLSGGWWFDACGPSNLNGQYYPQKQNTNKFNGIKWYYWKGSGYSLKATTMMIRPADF
Description: (§1) In brief, VHH and benchmark compounds are immobilized on a CM5 chip via amine coupling. […] Ang2-FLD species are allowed to associate for 2 min and to dissociate for 20 min at a flow rate of 45 μL/min. In between injections, the surfaces are regenerated with a 10 sec pulse of 25 mM NaOH and 60 sec stabilization period. Association/dissociation data are evaluated by fitting a 1:1 interaction model (Langmuir binding). The affinity constant KD is calculated from resulting association and dissociation rate constants kₐ and kd and are depicted in Table 8.

[2] = molecular target: T2, recombinant cynomolgus Ang2-FLD (cynomolgus); assay: as above
T2 construct: domain: FLD; also called cyno Ang2-FLD
Description: as §1

[3] = molecular target: T3, recombinant human Ang2-FLD (human, UniProt O15123 275-496, limits assumed); assay: as above
T3 construct: domain: FLD; not used
T3 sequence (looked up): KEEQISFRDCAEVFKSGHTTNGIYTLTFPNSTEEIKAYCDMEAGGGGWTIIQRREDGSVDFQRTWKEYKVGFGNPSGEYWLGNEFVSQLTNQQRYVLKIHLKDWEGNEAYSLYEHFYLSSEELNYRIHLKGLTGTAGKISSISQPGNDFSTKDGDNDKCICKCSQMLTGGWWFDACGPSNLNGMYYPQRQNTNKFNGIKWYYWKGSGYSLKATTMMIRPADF
Description: as §1

[4] = molecular target: T4, N-terminally FLAG-tagged cynomolgus Ang2 (HEK293T conditioned medium) (cynomolgus, UniProt O15123 19-496 (human entry), limits assumed); assay: competition ELISA, FLAG-cAng2 on coated cTie2-Fc
T4 construct: may be a nucleotide entry; also called cAng2; FLAG-cAng2
T4 chain: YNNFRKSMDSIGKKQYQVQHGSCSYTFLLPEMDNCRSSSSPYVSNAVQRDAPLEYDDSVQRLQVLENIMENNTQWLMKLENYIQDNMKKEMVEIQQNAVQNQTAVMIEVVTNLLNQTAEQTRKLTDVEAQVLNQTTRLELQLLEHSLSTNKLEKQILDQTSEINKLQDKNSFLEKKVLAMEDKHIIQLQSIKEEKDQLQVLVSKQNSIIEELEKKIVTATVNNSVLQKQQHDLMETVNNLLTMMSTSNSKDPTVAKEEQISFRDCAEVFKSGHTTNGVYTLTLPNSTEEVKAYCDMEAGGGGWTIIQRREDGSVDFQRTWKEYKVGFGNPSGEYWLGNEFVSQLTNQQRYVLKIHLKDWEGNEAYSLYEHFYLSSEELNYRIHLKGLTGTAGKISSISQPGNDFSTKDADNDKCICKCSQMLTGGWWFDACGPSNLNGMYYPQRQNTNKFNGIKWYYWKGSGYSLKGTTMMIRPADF
Description: (§2) In brief, 2 μg/mL of recombinant mouse Tie2-Fc or cyno Tie2-Fc is coated overnight at 4° C. in a 96-well MaxiSorp plate (Nunc, Wiesbaden, Germany). Coated wells are blocked with a 1% casein solution.

[5] = molecular target: T5, N-terminally FLAG-tagged mouse Ang2 (HEK293T conditioned medium) (mouse, UniProt O35608 19-496); assay: competition ELISA, periplasmic extract, FLAG-mAng2 on mTie2/Fc
T5 construct: may be a nucleotide entry; also called mAng2; FLAG-mAng2
T5 sequence: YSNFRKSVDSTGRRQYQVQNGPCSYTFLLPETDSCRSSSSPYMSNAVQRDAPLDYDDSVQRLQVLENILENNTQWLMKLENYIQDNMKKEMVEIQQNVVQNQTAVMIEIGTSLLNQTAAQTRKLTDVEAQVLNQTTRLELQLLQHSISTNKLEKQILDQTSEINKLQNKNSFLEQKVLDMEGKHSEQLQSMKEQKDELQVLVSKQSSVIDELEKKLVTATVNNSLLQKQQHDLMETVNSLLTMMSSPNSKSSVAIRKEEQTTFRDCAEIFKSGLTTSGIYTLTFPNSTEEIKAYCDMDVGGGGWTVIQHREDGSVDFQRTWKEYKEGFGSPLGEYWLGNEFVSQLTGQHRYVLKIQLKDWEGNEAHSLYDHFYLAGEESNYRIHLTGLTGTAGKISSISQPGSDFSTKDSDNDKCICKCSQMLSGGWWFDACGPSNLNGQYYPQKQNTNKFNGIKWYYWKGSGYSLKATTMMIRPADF
Description: (§3) In brief, human Tie2/Fc chimera (R&D Systems, Minneapolis, Minn., USA) is biotinylated using N-hydroxysulfosuccinimide ester of biotin (Thermo Fisher Scientific, Rockford, Ill., USA). […] To this mixture, the Acceptor beads and 0.3 nM biotinylated human Tie2/Fc chimeras are added and further incubated for 2 hours at room temperature. Finally, streptavidin conjugated Donor beads (Perkin Elmer, Waltham, Mass., US) are added and the mixture is incubated for an additional 2 hours at room temperature. Assay buffer is PBS+0.03% Tween-20+0.1% BSA. Fluorescence is measured using the Envision Multilabel Plate reader (Perkin Elmer, Waltham, Mass., USA) using an excitation wavelength of 680 nm and an emission wavelength of 520 nm. […] In brief, human or mouse Tie2/Fc chimera (R&D Systems, Minneapolis, Minn., USA) are immobilized at 2 μg/mL overnight at 4° C. in a 96-well MaxiSorp plate (Nunc, Wiesbaden, Germany). Wells are blocked with a 1% casein solution. […] This mixture is added to the Tie2/Fc coated well and incubated for 2 hours at room temperature. Residual binding of Ang is detected using HRP-conjugated anti-FLAG M2 antibody (Sigma, St Louis, Mo., USA).

[6] = molecular target: T6, FLAG-tagged recombinant human Ang1 (Alexis Biochemicals) (human, UniProt Q15389 20-498, limits assumed); assay: competition ELISA, periplasmic extract, FLAG-hAng1 on hTie2/Fc
T6 construct: Bought reagent; also called hAng1; FLAG-hAng1
T6 sequence (looked up): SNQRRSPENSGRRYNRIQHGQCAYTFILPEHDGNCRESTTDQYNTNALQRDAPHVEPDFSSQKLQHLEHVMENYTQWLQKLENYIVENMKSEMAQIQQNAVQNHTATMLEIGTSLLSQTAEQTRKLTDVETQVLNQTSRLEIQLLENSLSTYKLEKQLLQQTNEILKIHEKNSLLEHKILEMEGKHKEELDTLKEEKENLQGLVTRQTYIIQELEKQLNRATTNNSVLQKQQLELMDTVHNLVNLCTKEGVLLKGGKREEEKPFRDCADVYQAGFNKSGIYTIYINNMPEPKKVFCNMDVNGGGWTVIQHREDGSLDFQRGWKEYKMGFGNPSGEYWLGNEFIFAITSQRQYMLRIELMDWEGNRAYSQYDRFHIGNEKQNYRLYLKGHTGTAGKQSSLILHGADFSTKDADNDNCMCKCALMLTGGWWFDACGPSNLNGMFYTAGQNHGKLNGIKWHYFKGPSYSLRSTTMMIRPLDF
Description: as §3

[7] = molecular target: T5, N-terminally FLAG-tagged mouse Ang2 …; assay: competition ELISA, FLAG-mAng2 on coated mTie2-Fc
Description: as §2

[8] = molecular target: T6, FLAG-tagged recombinant human Ang1 …; assay: ratio of IC50 in hAng1/hTie2 ELISA to IC50 in hAng2/hTie2 ELISA
Description: In brief, 2 μg/mL of Tie2/Fc chimera (R&D Systems, Minneapolis, Minn., USA) is coated in a 96-well MaxiSorp plate (Nunc, Wiesbaden, Germany).
In brief, 2 μg/mL of recombinant human Tie2-Fc (R&D Systems, Minneapolis, Minn., USA) is coated overnight at 4° C. in a 96-well MaxiSorp plate (Nunc, Wiesbaden, Germany). Coated wells are blocked with a 1% casein solution.

[9] = molecular target: T3, recombinant human Ang2-FLD; assay: ProteOn off-rate assay, periplasmic extracts over coated human Ang2-FLD
Description: In a first cycle, amino acid substitutions are introduced randomly in both framework (FW) and complementary determining regions (CDR) using the error-prone PCR method. […] After a polish step, PCR products are inserted via unique restriction sites into a vector designed to facilitate phage display of the VHH library. […] Periplasmic extract of affinity matured clones is diluted 1:10 and injected across the “analyte channels” A1-A6.

FLAG-tagged mouse Ang2 [10] = molecular target: T7, FLAG-tagged mouse Ang2 (mouse, UniProt O35608 19-496); assay: competition ELISA: FLAG-mAng2 binding to coated mTie2-Fc
T7 construct: N-terminally FLAG-tagged, conditioned medium of HEK293T cells; also called mAng2; FLAG-mAng2
T7 sequence: T5 sequence
Description: as §2

[11] = molecular target: T8, FLAG-tagged cynomolgus Ang2 (cynomolgus, UniProt O15123 19-496 (human entry), limits assumed); assay: competition ELISA: FLAG-cAng2 binding to coated cTie2-Fc
T8 construct: N-terminally FLAG-tagged, conditioned medium of HEK293T cells; also called cAng2; FLAG-cAng2
T8 chain: T4 chain
Description: as §2

[12] = molecular target: T8, FLAG-tagged cynomolgus Ang2; assay: as above
Description: as §2

FLAG-tagged mouse Ang2 [13] = molecular target: T7, FLAG-tagged mouse Ang2; assay: competition ELISA: FLAG-mAng2 binding to coated mTie2-Fc; remark: listed apart in the source
Description: as §2

FLAG-tagged mouse Ang2 [14] = molecular target: T7, FLAG-tagged mouse Ang2; assay: as above; remark: listed apart in the source
Description: as §2

[15] = molecular target: T8, FLAG-tagged cynomolgus Ang2; assay: competition ELISA: FLAG-cAng2 binding to coated cTie2-Fc
Description: as §2

[16] = molecular target: T8, FLAG-tagged cynomolgus Ang2; assay: as above

B1: VHH 28D10 (VHH)
VHH: EVQLVESGGGLVQAGGSLRLSCAASGFTLDDYAIGWFRQAPGKEREGVSCIRDSDGSTYYADSVKGRFTISSDNDKNTVYLQMNSLKPEDTAVYYCAAVPAGRLRFGEQWYPLYEYDAWGQGTQVTVSS
notes: also called 028D10; not shown: C-terminal c-myc tag and His6 tag
[1]
  Kd: 5.6 nM
  koff: 0.011 s⁻¹
  kon: 1.9e+06 M⁻¹ s⁻¹
[2]
  Kd: 1.4 nM
  koff: 0.025 s⁻¹
  kon: 1.8e+07 M⁻¹ s⁻¹
[3]
  Kd: 1.3 nM
  koff: 0.0062 s⁻¹
  kon: 4.9e+06 M⁻¹ s⁻¹
[4]
  IC50: 2 nM
[5]
  % inh: 93%
[6]
  % inh: 4%
[7]
  IC50: 6.1 nM
[8]
  hAng1/hAng2 ratio: > 3080

B2: variant(s) of VHH 00027 carrying F27L and L100iI (VHH)
VHH: B1 VHH with F27L, C50S, S54N, L113I, Q124L
notes: also called L100il
[9]
  fold improvement (off-rate against VHH 00027): 9.4 fold

B3: VHH 28D10 (VHH, not shown: small tags and cut ends)
VHH: B1 VHH
notes: Parental llama VHH; also called 028D10
FLAG-tagged mouse Ang2 [10]
  IC50: 5.7 nM
[11]
  IC50: 2.1 nM
[12]
  IC50: 2.1 nM
FLAG-tagged mouse Ang2 [13]
  IC50: 5.7 nM

B4: variant(s) of VHH 00027 carrying A24V (VHH, name in Kabat numbering)
VHH: B1 VHH with A24V, C50S, S54N, Q124L
notes: not shown: C-terminal c-myc tag and His6 tag
[9]
  fold improvement (off-rate against VHH 00027): 2 fold

B5: VHH 00027 (VHH, not shown: small tags and cut ends)
VHH: B1 VHH with C50S, S54N, Q124L
notes: Variant of 28D10 carrying C50S/S53N and Q108L
FLAG-tagged mouse Ang2 [14]
  IC50: 1.98 nM
FLAG-tagged mouse Ang2 [10]
  IC50: 2 nM
[15]
  IC50: 0.728 nM
[12]
  IC50: 0.7 nM
[16]
  IC50: 0.728 nM
FLAG-tagged mouse Ang2 [13]
  IC50: 1.98 nM

B6: VHH 00908 (VHH, not shown: small tags and cut ends)
VHH: B1 VHH with A14P, F27I, C50S, S54N, D55G, D75S, K87R, F106Y, L113I, Q124L
FLAG-tagged mouse Ang2 [14]
  IC50: 0.085 nM
[15]
  IC50: 0.079 nM
[16]
  IC50: 0.079 nM
FLAG-tagged mouse Ang2 [13]
  IC50: 0.085 nM

B7: VHH 00042 (VHH, not shown: small tags and cut ends)
VHH: B1 VHH with A14P, C50S, S54N, D75S, K87R, Q124L
FLAG-tagged mouse Ang2 [10]
  IC50: 1.9 nM
[12]
  IC50: 0.8 nM
[16]
  IC50: 0.753 nM
FLAG-tagged mouse Ang2 [13]
  IC50: 1.91 nM
